Assay results from patent US20210145976A1 (ARO BIOTHERAPEUTICS, published 2021).
Where two headings read alike, the source gives them in different places.

Experiments:
[1] = target: T1, recombinant biotinylated CD71 extracellular domain (Sino Biologics) with an N-terminal 6His tag (human, UniProt P02786 89-760, biotinylated (sites not given)); assay: screening ELISA
T1 construct: extracellular domain; also called hCD71; huCD71

[2] = target: T1, recombinant biotinylated CD71 …; assay: screening ELISA, ratio
CD71 on SK-BR-3 cells [3] = target: T2, CD71 on SK-BR-3 cells (human, UniProt P02786 1-760); assay: cell-based or functional assay
CD71 on SK-BR-3 cells [4] = target: T2, CD71 on SK-BR-3 cells; assay: cell-based or functional assay; remark: listed apart in the source
[5] = target: T1, recombinant biotinylated CD71 …; assay: screening ELISA; remark: listed apart in the source
Protocol: (§1) To screen for FN3 domains that specifically bind CD71, streptavidin-coated Maxisorp plates (Nunc catalog 436110) were blocked for 1 hour in Starting Block T20 (Pierce) and then coated with biotinylated CD71 (using same antigen as in panning) or negative controls (an unrelated Fc-fused recombinant protein and human serum albumin) for 1 hour. Plates were rinsed with TBST and diluted lysate was applied to plates for 1 hour. Following additional rinses, wells were treated with HRP-conjugated anti-V5 tag antibody (Abcam, ab1325), for 1 hour and then assayed with POD (Roche, 11582950001).

CD71 on SK-BR-3 cells [6] = target: T2, CD71 on SK-BR-3 cells; assay: cell-based or functional assay; remark: listed apart in the source
[7] = target: T1, recombinant biotinylated CD71 …; assay: screening ELISA, ratio; remark: listed apart in the source
Protocol: as §1

T2 sequence (P02786 whole entry): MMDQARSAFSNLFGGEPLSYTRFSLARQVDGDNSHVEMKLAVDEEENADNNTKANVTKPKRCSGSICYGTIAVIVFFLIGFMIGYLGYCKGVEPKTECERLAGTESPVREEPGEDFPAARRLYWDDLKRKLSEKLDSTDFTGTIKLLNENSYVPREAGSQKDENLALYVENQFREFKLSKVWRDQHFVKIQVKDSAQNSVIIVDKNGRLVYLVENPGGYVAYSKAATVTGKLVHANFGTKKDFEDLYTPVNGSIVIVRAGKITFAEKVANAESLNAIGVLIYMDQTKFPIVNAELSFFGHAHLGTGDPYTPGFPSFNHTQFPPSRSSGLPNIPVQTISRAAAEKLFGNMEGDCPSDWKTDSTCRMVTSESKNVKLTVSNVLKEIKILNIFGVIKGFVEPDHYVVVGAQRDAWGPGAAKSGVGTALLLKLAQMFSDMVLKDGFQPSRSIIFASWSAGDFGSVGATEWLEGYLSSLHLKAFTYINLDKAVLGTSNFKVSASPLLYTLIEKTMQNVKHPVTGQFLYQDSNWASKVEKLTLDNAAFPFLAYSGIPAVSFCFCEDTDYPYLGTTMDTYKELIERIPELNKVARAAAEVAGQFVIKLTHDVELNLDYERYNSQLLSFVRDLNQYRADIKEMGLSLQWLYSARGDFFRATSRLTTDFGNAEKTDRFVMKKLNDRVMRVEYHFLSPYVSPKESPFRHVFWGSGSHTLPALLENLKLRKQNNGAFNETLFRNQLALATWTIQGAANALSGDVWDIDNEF
T1 sequence (P02786 other isoform, or with tags, fused parts or gaps): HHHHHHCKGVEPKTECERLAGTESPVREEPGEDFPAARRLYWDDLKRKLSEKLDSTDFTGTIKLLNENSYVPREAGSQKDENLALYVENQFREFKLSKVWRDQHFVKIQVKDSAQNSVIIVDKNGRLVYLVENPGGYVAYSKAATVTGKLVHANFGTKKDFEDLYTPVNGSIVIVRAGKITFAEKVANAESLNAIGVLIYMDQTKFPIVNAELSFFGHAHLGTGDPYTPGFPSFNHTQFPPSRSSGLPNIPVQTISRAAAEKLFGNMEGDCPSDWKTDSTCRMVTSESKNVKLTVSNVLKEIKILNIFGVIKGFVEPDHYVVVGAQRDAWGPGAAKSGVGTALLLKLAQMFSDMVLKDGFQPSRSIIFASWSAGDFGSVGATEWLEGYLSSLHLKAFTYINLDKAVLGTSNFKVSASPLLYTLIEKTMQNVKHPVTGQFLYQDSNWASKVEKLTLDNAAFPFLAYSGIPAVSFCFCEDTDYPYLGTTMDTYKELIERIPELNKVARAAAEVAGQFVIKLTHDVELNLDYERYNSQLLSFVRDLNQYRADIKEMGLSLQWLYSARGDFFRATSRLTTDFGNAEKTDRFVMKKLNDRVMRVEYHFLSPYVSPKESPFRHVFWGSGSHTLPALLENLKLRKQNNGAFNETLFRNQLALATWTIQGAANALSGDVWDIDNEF

Row | hCD71 [1] | hCD71:HSA [2] | hCD71 [5] | huCD71/Fc [7] | Binder | IC50, SKBR-3 viability, MMAF conjugate, first unlabelled column (+/- human transferrin) (CD71 on SK-BR-3 cells [3]) [nM] | IC50, SKBR-3 viability, MMAF conjugate, second unlabelled column (+/- human transferrin) (CD71 on SK-BR-3 cells [3]) [nM] | IC50, SK-BR3 viability, MMAF conjugate, no competitor (CD71 on SK-BR-3 cells [4]) [nM] | IC50, SK-BR3 viability, MMAF conjugate, with 0.6 uM holo-human transferrin (CD71 on SK-BR-3 cells [4]) [nM] | IC50, SKBR-3 cell viability, MMAF conjugate (CD71 on SK-BR-3 cells [6]) [nM]
1 | 3.92e+06 | 2910 |  |  | SEQ ID NO 235 (designed binder, FN3 domain) MLPAPKNLVVSRVTEDSARLSWTAPDAAFDSFSINYREWWSDGEAIYLPVPGSERSYDLTGLKPGTEYAVYIQGVKGGSRSFPLHAWFTT | 1.75 | 10.6 |  |  | 
2 | 2.88e+06 | 679 |  |  | SEQ ID NO 238 (designed binder, FN3 domain) MLPAPKNLVVSRVTEDSARLSWTAPDAAFDSFKIFYQEFGGEAIVLTVPGSERSYDLTGLKPGTEYWVDIYGVKGGYTSSPLSAIFTT |  | 7.23 |  |  | 
3 | 2.67e+06 | 126 |  |  | SEQ ID NO 302 (designed binder, FN3 domain) MLPAPKNLVVSRVTEDSARLSWTAPDAAFDSFDIYYPEYYDRGEAIVLTVPGSERSYDLTGLKPGTEYTVYIDGVKGGGGSGPLSAIFTT | 164 | 27.8 |  |  | 
4 | 2.44e+06 | 1160 |  |  | SEQ ID NO 259 (designed binder, FN3 domain) MLPAPKNLVVSRVTEDSARLSWTAPDAAFDSFTIEYFEFVDAGEAIVLTVPGSERSYDLTGLKPGTEYWVEIWGVKGGSWSKPLSAIFTT | 27.5 |  |  |  | 
5 | 3.21e+06 | 656 |  |  | SEQ ID NO 190 (designed binder, FN3 domain) MLPAPKNLVVSRVTEDSARLSWTAPDAAFDSFFIGYPEYPATGEAITLFVPGSERSYDLTGLKPGTEYNVVIQGVKGGRPSNPLVVAFTT | 36 | 12 |  |  | 
6 | 562000 | 32 |  |  | SEQ ID NO 194 (designed binder, FN3 domain) MLPAPKNLVVSRVTEDSARLSWTAPDAAFDSFEIDYDELAIYGEAIVLTVPGSERSYDLTGLKPGTEYRVFIYGVKGGWTSWPLSTIFTT |  | 5.09 |  |  | 
7 | 4.33e+06 | 1520 |  |  | SEQ ID NO 226 (designed binder, FN3 domain) MLPAPKNLVVSRVTEDSARLSWTAPDAAFDSFHIIYEEVLTEGEAIYLRVPGSERSYDLTGLKPGTEYGVTIKGVKGGAYSIPLIATFTT |  | 8.32 |  |  | 
8 | 3.08e+06 | 1580 |  |  | SEQ ID NO 134 (designed binder, FN3 domain) MLPAPKNLVVSRVTEDSARLSWTAPDAAFDSFWIDYYERKYVGEAIVLTVPGSERSYDLTGLKPGTEYEVTIYGVKGGWYSDPLSAIFTT | 165 | 8.54 |  |  | 

Second part, the binder before the results:

Row | Binder | hCD71 [1] | hCD71:HSA [2] | hCD71 [5] | huCD71/Fc [7] | IC50, SKBR-3 viability, MMAF conjugate, first unlabelled column (+/- human transferrin) (CD71 on SK-BR-3 cells [3]) [nM] | IC50, SKBR-3 viability, MMAF conjugate, second unlabelled column (+/- human transferrin) (CD71 on SK-BR-3 cells [3]) [nM] | IC50, SK-BR3 viability, MMAF conjugate, no competitor (CD71 on SK-BR-3 cells [4]) [nM] | IC50, SK-BR3 viability, MMAF conjugate, with 0.6 uM holo-human transferrin (CD71 on SK-BR-3 cells [4]) [nM] | IC50, SKBR-3 cell viability, MMAF conjugate (CD71 on SK-BR-3 cells [6]) [nM]
9 | SEQ ID NO 62 (designed binder, VC-MMAF conjugate (site not given)) MLPAPKNLVVSRVTEDSARLSWTAPDAAFDSFPILYLELNHHGEEIVLTVPGSERSYDLTGLKPGTEYWVYIFGVKGGMYSAPLSAIFTTGG |  |  |  |  |  |  | > 0.005 | 0.6 | 
10 | SEQ ID NO 61 (designed binder, FN3 domain) MLPAPKNLVVSRVTEDSARLSWRVESRTFDSFLIQYQESEKVGEAIVLTVPGSERSYDLTGLKPGTEYTVSIYGVVWDTRDNPISNPLSAIFTT |  |  | 4.9e+06 | 461 |  |  |  |  | 1.93
11 | SEQ ID NO 104 (designed binder, FN3 domain) MLPAPKNLVVSHVTEDSARLSWTAPDAAFDSFDIEYYELVGSGEAIVLTVPGSERSYDLTGLKPGTEYYVAIYGVKGGYLSRPLSAIFTT | 3.58e+06 | 2100 |  |  | 301 | 5.9 |  |  | 
12 | SEQ ID NO 33 (designed binder, FN3 domain) MLPAPKNLVVSRVTEDSARLSWTAPDAAFDSFTIQYEELTTVGEAIYLRVPGSERSYDLTGLKPGTEYVVWIEGVKGGLRSNPLGAAFTT |  |  | 518000 | 46.6 |  |  | 4.4 | ~200 | 3.27
13 | SEQ ID NO 39 (designed binder, FN3 domain) MLPAPKNLVVSRVTEDSARLSWTAPDAAFDSFDIDYREWWTLGEAIVLTVPGSERSYDLTGLKPGTEYYVNIQGVKGGLRSYPLSAIFTT |  |  | 507000 | 122 |  |  | 1.2 | 31.1 | 0.52
14 | SEQ ID NO 92 (designed binder, FN3 domain) MLPAPKNLVVSRVTEDSARLSWTAPDAAFDSFLIRYWEWYVLGEAIVLTVPGSERSYDLTGLKPGTEYYVEISGVKGGWQSWPLSAIFTT | 3.85e+06 | 2960 |  |  | 5.49 | 1.06 |  |  | 
15 | SEQ ID NO 58 (designed binder, FN3 domain) MLPAPKNLVVSRVTEDSARLSWTAPDAAFDSFTIWYAEADGWGEAIVLTVPGSERSYDLTGLKPGTEYFVDIYGVKGGYLSVPLSAIFTT |  |  | 302000 | 62.9 |  |  |  |  | 7.7
16 | SEQ ID NO 59 (designed binder, FN3 domain) MLPAPKNLVVSRVTEDSARLSWTAPDAAFDSFTIWYAEWEDEGEAIVLTVPGSERSYDLTGLKPGTEYRVEIYGVKGGYPSKPLSAIFTT |  |  | 1.95e+06 | 608 |  |  |  |  | 4
17 | SEQ ID NO 52 (designed binder, FN3 domain) MLPAPKNLVVSRVTEDSARLSWTAPDAAFDSFKISYQEWWEDGEAIVLTVPGSERSYDLTGLKPGTEYWVNISGVKGGVQSYPLSAIFTT |  |  | 1.01e+07 | 5750 |  |  |  |  | 6.3
18 | SEQ ID NO 44 (designed binder, FN3 domain) MLPAPKNLVVSRVTEDSARLSWTAPDAAFDSFYIEYYESLPDGEAIVLTVPGSERSYDLTGLKPGTEYAVYIYGVKGGYYSRPLSAIFTT |  |  | 176000 | 44.8 |  |  |  |  | 2.5
19 | SEQ ID NO 49 (designed binder, FN3 domain) MLPAPKNLVVSRVTEDSARLSWTAPDAAFDSFGISYLEWWEDGEAIVLTVPGSERSYDLTGLKPGTEYWVSIAGVKGGKRSYPLSAIFTT |  |  | 1.09e+07 | 948 |  |  |  |  | 3
20 | SEQ ID NO 41 (designed binder, FN3 domain) MLPAPKNLVISRVTEDSARLSWTAPDAAFDSFFIYYIESYPAGEAIVLTVPGSERSYDLTGLKPGTEYWVGIDGVKGGRWSTPLSAIFTT |  |  | 4.27e+06 | 423 |  |  | 0.01 | 0.5 | 4.7
21 | SEQ ID NO 51 (designed binder, FN3 domain) MLPAPKNLVVSRVTEDSARLSWTAPDAAFDSFFIKYIEWWADGEAIVLTVPGSERSYDLTGLKPGTEYLVEIYGVKGGKWSWPLSAIFTT |  |  | 9.71e+06 | 2290 |  |  |  |  | 4.9
22 | SEQ ID NO 40 (designed binder, FN3 domain) MLPAPKNLVVSRVTEDSARLSWTAPDAAFDSFVIEYWEYVGHGEAIVLTVPGSERSYDLTGLKPGTEYSVGIYGVKGGSLSRPLSAIFTT |  |  | 220000 | 74.4 |  |  | 2.2 | ~100 | 3
23 | SEQ ID NO 42 (designed binder, FN3 domain) MLPAPKNLVVSRVTEDSARLSWTAPDAAFDSFTIEYYESFYGGEAIVLTVPGSERSYDLTGLKPGTEYYVSIYGVKGGWLSRPLSAIFTT |  |  | 2.83e+06 | 478 |  |  | 2.4 | ~70 | 0.19
24 | SEQ ID NO 36 (designed binder, FN3 domain) MLPAPKNLVVSRVTEDSARLSWTAPDAAFDSFTITYIEWWENGEAIALSVPGSERSYDLTGLKPGTEYQVGIAGVKGGYKSYPLWALFTT |  |  | 3.3e+06 | 535 |  |  |  |  | 7.1
25 | SEQ ID NO 50 (designed binder, FN3 domain) MLPAPKNLVVSRVTEDSARLSWTAPDAAFDSFVIEYREGAWYGEAIVLTVPGSERSYDLTGLKPGTEYFVDITGVKGGWWSDPLSAIFTT |  |  | 1.08e+07 | 4490 |  |  |  |  | 3.1
